Results: patent US7354735B2, “Nucleic acid encoding fluorescent protein constructs and methods for detecting apoptosis” (Hong Kong University of Science and Technology, priority 2001, dated 2008)

Assays:
[1] = biological target: T1, caspase-3 (Homo sapiens, UniProt P42574); assay: Dosage-dependent caspase-3 cleavage assay; assay type: biochemical; conditions: 1.28 μg sensor protein, caspase-3 0.3125 ng to 1.28 μg, 1 hour; for sensitivity to caspase-3: normalized YFP/CFP ratio
T1 sequence (P42574 29-175 limits assumed): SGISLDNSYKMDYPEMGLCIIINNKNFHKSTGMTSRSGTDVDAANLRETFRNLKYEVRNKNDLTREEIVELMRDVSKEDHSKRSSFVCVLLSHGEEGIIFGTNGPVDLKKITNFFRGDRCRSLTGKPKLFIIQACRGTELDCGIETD
T1 sequence (P42574 176-277 limits assumed): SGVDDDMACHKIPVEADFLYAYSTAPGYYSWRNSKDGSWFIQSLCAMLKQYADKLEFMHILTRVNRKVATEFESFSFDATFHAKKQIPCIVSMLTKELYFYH
Experimental: Same amount of purified sensor A and sensor B protein was incubated with different amount of caspase-3 ranging from 0.3125 ng to 1.28 μg for 1 hr. The emission spectra of both YFP and CFP were measured for each sample at the end of reaction using a spectrofluorometer. The emission ratio (YFP/CFP) of each sample was normalized to the value of the ratio from a mock control with no caspase-3.
To compare the sensitivity of sensor A and sensor B on caspase-3 activity, a dosage-dependent caspase-3 cleavage assay was performed. In this experiment, 1.28 μg amount of the purified sensor A or sensor B protein was incubated with different amount of caspase-3 ranging from 0.3125 ng to 1.28 μg for 1 hour. The emission spectra of both YFP and CFP were measured for each sample at the end of the reaction using a spectrofluorometer. The emission ratio (YFP/CFP) of each caspase reaction was normalized with that of the mock control having no caspase-3 in the reaction.

[2] = biological target: T1, caspase-3; assay: Western blot analysis of caspase-3 cleavage of purified FRET probes; assay type: biochemical; conditions: for cleavage by caspase-3 (Western blot): purified protein incubated with caspase-3, 37 degree C, 1-2 hrs, anti-GFP antibody
Experimental: Purified FRET probes were incubated with caspase-3 in the reaction buffer at 37. degree. C. for 1-2 hrs. The reaction mixtures were separated on a SDS-PAGE and transferred onto a nitrocellulose membrane. The Protein blot was then probed with anti-GFP antibody (CLONTECH™). Acetyl-Asp-Glu-Val-Asp-aldehyde called CHO (AC-DEVD-CHO) is a chemical derivative of SEQ ID NO: 11 and a caspase-3 specific inhibitor.
To determine whether these FRET probes are sensitive to caspase-3 cleavage; the purified proteins were incubated with caspase-3 and then subjected to Western blot analysis. Antibodies were purchased from CLONTECH™.

[3] = biological target: T1, caspase-3; assay: Spectrofluorometer measurement of FRET emission spectra before and after caspase-3 treatment; assay type: biochemical; conditions: excitation 433 nm; for YFP (526 nm)/CFP (480 nm) emission ratio after caspase treatment: after incubating with caspase-3; for YFP (526 nm)/CFP (480 nm) emission ratio before caspase treatment: before caspase-3
Experimental: The excitation wavelength used to excite CFP in the probe was 433 nm. −cpp32: no caspase-3 in the reaction. +cpp32: caspase-3 was added into the reaction.
The fluorescent energy transfer from CYP to YFP in the FRET probes was measured using a spectrofluorometer. When CFP was excited in each probe at the excitation wavelength of 433 nm, very little emission light was detected from the FRET probes at the known emission wavelength for CFP (480 nm). Instead, a significant amount of emitted fluorescent light was detected at the emission wavelength of YFP which peaks at 526 nm (FIG. 4). […] It was then determined whether the FRET effect was sensitive to the caspase cleavage. The FRET probes were treated with caspase-3 and analyzed using a spectrofluorometer. […] As a control, no change for the emission spectrum was observed from the CFP-YFP fusion protein which lacks the substrate sequence (FIG. 4A). Based on spectra similar to FIG. 4, it was determined the YFP (526 nm)/CFP (480 nm) emission ratio for all three FRET probes before and after caspase treatment. This YFP/CFP ratio was used to quantify the FRET effect.

[4] = system: HeLa cells; assay: Imaging of FRET probe in living HeLa cells during UV-induced apoptosis; assay type: cell-based
Experimental: HeLa cells expressing either sensor A or CFP-YFP fusion protein were induced to apoptosis by UV irradiation for 5 min. When the probe was excited at 440 nm, the fluorescent intensity of CFP (at 480±15 nm) and that of YFP (at 535±12.5 nm) from same cell before (A, C) and after (B, D) UV treatment was recorded using a cooled CCD imaging system. The representative ratio images of YFP/CFP are shown here. A significant FRET reduction is seen only in panel B from both cells expressing sensor A, but not in panel D with cells expressing the control fusion protein.
FIG. 7 is a statistic analysis of FRET changes during apoptosis. Images were recorded as described in FIG. 6. The fluorescent intensities of YFP and CFP were then determined from each image. The average values of YFP/CFP from 13 cells expressing sensor A and 9 cells expressing CFP-YFP fusion protein before and after UV-irradiation are plotted here. Nearly 4-fold reduction in the apoptotic cells expressing was found using the FRET probe but not in the control cells expressing the CFP-YFP fusion gene.
To test whether this FRET probe can be used to detect caspase activity in living cells, sensor A was expressed in HeLa cells and measured the FRET effect of the probe in single cells using a cooled CCD imaging system. The fluorescent images of the cell obtained from the emission wavelengths of CFP and YFP were recorded before and after UV treatment. A computer software (Metamorph, Universal Imaging) was used to generate a ratio image of YFP/CFP for each cell under different treatments. […] At 3 hours after the UV treatment, these cells had entered apoptosis. […] The average YFP/CFP emission ratio changes was calculated for 13 apoptotic cells expressing sensor A, and found a nearly 4-fold reduction after UV treatment (FIG. 7).
Recently, sensor A was used to study the dynamics of caspase-3 activation during UV-induced apoptosis in living HeLa cells.

Row | Substance | sensitivity to caspase-3 [1] | cleavage by caspase-3 (Western blot) [2] | change of emission spectrum on caspase-3 treatment [3] | YFP (526 nm)/CFP (480 nm) emission ratio after caspase treatment [3] | YFP (526 nm)/CFP (480 nm) emission ratio before caspase treatment [3] | cleavage of FRET probe (sensor A) by caspase-3 in the presence of inhibitor ([2]; caspase-3 plus inhibitor, Western blot) | relative sensitivity to caspase-3 (sensor A versus sensor B) [1] | reduction of average YFP/CFP emission ratio after UV treatment ([4]; HeLa cells expressing the probe, before and after UV irradiation, 13 cells sensor A, 9 control cells) [fold] | intensity of YFP/CFP ratio image after UV treatment ([4]; HeLa cells, 3 hours after UV treatment) | detection of caspase-3 activation during UV-induced apoptosis ([4]; living HeLa cells)
1 | sensor B: CFP-YFP FRET fusion protein with 22 amino acid linker SGLRSGGSGGDEVDGGSGGSNS (SEQ ID NO: 10) containing DEVD (left off: small tags and cut ends; large carriers) | highly sensitive | caspase-3 can cleave almost all | completely changed | 0.59 | 2.76 | – | – | – | – | –
2 | acetyl-Asp-Glu-Val-Asp-aldehyde [AC-DEVD-CHO, reference compound] | – | – | – | – | – | no FRET probe (sensor A) was cleaved | – | – | – | –
3 | sensor A: CFP-YFP FRET fusion protein with 16 amino acid linker SGLRSGGDEVDGGSNS (SEQ ID NO: 7) containing the caspase-3 recognition motif (left off: small tags and cut ends; large carriers) | highly sensitive | caspase-3 can cleave almost all | completely changed | 0.59 | 3.02 | – | slightly more sensitive than sensor B | ~4 | decease dramatically | clearly detected prior to any visible cell morphological changes
